In experiment [1] the target is biotinylated IgG from human serum (Rockland Immunochemicals) (human). Briefly: BLI, kinetic fit values (1:1 model), soluble sample on immobilized hIgG.
Experiment [2] has the same target. Briefly: BLI (Octet), equilibrium titration of soluble analyte on biotinylated hIgG on streptavidin tips. (BLI is a label-free optical method that tracks binding on a fibre tip over time.)
The target is the same in experiment [3]. The experiment in a line: BLI, equilibrium KD, soluble sample on immobilized hIgG.

Broadly, the Kd is a measure of binding affinity in units of concentration. Low values mean a tighter complex, high ones a looser complex. The koff is the first-order rate constant of dissociation. A low value points to a long-lived complex. As usually defined, the kon is the rate constant with which the complex forms. A word on the EC50 (read off the curve): it is the concentration giving half of the maximal effect.

Sequence of Ab+Inv LC15 (HP6017 with invertase fused to the C-terminus of the light chain by a (G4S)3 linker) (heavy): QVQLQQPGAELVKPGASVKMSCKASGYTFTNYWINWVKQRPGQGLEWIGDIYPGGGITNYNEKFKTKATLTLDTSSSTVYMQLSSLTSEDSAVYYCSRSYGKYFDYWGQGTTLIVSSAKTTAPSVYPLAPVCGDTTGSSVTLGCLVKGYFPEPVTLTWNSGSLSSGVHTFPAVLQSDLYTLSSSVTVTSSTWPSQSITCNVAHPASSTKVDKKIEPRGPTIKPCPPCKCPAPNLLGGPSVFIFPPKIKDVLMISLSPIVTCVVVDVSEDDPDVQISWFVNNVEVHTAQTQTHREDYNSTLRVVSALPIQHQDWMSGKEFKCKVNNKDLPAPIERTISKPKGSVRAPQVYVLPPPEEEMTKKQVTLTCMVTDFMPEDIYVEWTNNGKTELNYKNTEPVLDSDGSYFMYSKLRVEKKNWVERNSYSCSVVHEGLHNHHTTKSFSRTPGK
Sequence of Ab+Inv LC15 (HP6017 with invertase fused to the C-terminus of the light chain by a (G4S)3 linker) (light): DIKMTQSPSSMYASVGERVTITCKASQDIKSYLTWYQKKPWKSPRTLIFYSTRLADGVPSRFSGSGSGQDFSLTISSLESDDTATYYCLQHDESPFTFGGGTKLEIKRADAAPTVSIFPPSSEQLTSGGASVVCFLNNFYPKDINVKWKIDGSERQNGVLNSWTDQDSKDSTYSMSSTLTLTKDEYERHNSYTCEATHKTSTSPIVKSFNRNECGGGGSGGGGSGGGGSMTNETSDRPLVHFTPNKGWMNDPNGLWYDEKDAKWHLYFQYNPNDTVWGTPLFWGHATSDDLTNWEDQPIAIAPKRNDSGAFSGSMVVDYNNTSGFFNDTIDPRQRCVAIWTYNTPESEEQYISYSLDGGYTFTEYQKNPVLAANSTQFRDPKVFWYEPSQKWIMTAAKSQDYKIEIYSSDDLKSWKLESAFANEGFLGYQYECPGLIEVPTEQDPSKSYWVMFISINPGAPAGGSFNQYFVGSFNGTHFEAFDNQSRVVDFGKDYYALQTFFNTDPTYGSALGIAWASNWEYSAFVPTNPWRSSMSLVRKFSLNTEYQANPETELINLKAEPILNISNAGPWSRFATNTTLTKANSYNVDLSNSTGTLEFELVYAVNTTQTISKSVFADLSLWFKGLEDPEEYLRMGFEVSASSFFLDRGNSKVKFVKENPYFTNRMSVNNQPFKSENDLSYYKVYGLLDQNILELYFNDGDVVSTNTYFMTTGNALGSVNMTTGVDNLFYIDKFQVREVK
Sequence of Ab+Inv LC25 (HP6017 with invertase fused to the C-terminus of the light chain by a (G4S)5 linker) (light): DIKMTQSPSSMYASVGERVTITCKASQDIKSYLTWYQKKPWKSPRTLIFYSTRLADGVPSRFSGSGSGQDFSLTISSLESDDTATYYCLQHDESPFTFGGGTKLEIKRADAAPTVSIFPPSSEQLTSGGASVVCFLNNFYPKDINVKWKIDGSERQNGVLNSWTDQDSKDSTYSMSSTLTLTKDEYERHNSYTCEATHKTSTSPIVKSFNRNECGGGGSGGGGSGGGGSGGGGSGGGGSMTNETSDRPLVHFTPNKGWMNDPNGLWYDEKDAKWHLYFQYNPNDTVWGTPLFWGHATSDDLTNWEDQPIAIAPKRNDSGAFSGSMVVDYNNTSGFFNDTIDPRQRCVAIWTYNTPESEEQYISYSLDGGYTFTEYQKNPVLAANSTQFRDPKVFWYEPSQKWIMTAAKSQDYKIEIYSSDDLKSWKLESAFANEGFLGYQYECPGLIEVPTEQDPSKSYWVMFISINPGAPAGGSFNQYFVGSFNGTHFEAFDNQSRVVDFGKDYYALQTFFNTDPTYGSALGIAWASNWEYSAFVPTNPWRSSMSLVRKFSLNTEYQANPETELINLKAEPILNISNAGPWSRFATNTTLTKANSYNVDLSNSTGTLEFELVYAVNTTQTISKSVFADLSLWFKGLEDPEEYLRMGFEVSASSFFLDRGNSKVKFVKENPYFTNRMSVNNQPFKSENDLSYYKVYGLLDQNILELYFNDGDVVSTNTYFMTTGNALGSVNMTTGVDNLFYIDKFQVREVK
Sequence of recombinant antibody HP6017 (anti-human IgG, mouse IgG2a kappa) (light): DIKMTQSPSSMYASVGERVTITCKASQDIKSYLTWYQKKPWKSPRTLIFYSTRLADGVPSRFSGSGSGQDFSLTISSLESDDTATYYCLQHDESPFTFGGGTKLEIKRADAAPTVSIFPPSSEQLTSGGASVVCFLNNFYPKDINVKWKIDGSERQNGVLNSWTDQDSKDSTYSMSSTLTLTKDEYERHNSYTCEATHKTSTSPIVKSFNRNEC
Sequence of Ab+Inv HC17 (HP6017 with invertase fused to the C-terminus of the heavy chain by an AS(G4S)3 linker) (heavy): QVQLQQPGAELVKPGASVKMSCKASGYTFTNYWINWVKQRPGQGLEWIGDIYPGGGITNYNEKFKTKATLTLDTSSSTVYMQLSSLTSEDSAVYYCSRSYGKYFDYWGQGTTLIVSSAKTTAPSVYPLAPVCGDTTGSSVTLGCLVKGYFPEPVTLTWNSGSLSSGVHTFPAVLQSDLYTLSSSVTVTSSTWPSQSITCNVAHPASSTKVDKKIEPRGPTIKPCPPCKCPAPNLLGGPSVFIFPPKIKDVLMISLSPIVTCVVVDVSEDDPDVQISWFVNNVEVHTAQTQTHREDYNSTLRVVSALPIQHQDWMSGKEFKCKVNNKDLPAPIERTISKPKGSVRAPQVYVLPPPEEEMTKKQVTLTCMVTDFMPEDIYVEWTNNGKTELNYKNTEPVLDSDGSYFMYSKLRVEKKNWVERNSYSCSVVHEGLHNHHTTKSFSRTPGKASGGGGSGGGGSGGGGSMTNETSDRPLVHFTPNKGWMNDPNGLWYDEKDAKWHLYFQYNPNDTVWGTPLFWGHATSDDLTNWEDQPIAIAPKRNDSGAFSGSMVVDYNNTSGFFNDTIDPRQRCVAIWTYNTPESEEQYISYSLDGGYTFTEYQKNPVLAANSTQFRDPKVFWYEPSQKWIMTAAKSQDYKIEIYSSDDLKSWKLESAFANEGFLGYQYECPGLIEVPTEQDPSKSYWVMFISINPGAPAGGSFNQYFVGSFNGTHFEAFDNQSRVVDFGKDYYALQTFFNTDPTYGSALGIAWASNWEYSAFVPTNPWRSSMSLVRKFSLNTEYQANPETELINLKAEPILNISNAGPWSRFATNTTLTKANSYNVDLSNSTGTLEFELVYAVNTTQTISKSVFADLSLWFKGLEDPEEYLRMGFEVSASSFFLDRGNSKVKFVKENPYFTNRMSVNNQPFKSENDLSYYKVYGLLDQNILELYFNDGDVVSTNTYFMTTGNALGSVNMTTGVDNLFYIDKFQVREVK
Sequence of Ab+Inv HC27 (HP6017 with invertase fused to the C-terminus of the heavy chain by an AS(G4S)5 linker) (heavy): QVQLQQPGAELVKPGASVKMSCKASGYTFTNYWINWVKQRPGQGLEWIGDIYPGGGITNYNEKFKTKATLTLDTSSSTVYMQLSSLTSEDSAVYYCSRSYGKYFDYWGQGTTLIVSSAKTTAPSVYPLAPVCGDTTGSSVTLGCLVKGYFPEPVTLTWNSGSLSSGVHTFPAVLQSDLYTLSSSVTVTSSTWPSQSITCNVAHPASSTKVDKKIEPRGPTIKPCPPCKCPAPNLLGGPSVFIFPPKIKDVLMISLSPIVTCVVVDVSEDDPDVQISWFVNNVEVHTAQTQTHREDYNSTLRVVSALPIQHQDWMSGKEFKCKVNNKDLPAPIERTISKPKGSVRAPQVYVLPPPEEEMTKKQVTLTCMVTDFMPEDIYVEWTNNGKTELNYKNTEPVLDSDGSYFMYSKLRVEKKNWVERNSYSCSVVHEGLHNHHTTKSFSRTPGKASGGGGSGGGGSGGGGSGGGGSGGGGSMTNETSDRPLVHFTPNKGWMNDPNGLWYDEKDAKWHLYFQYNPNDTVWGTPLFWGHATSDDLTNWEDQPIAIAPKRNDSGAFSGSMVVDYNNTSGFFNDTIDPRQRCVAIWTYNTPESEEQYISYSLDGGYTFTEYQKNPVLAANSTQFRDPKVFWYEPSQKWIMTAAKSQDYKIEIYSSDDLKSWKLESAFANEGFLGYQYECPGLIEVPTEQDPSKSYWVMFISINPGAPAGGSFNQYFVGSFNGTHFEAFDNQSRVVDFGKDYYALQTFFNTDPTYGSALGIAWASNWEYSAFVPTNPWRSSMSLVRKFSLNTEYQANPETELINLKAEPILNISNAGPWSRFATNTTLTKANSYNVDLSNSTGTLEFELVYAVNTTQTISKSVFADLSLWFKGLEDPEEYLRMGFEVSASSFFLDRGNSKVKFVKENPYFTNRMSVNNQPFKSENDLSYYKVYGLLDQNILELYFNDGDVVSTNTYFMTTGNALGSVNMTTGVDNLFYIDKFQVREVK

Turning to “Ab+Inv HC17 (HP6017 with invertase fused to the C-terminus of the heavy chain by an AS(G4S)3 linker)”, in experiment [1], the Kd is < 1 pM, the dissociation rate constant (koff) is < 1e-07 s⁻¹ and the kon turned out to be 430000 M⁻¹ s⁻¹. This substance also registered an EC50 (read off the curve) in experiment [2] of 20 nM. In experiment [3], the Kd was 21 nM.

As for “Ab+Inv LC25 (HP6017 with invertase fused to the C-terminus of the light chain by a (G4S)5 linker)”, in experiment [1], the Kd is < 1 pM, the koff was < 1e-07 s⁻¹ and the kon is 1.61e+06 M⁻¹ s⁻¹. Also, the Kd in experiment [3] came out at 17 nM.

For the substance “Ab+Inv LC15 (HP6017 with invertase fused to the C-terminus of the light chain by a (G4S)3 linker)”, in experiment [1], the Kd is < 1 pM, the koff is < 1e-07 s⁻¹ and the kon stood at 1.46e+06 M⁻¹ s⁻¹. Also, the EC50 (read off the curve) in experiment [2] amounted to 20 nM. Also, the Kd in experiment [3] was found to be 16 nM.

Take “Ab+Inv HC27 (HP6017 with invertase fused to the C-terminus of the heavy chain by an AS(G4S)5 linker)”: in experiment [1], the Kd is < 1 pM, the koff was < 1e-07 s⁻¹ and the kon is 450000 M⁻¹ s⁻¹. In experiment [2], this substance had an EC50 (read off the curve) of 30 nM. This substance also yielded a Kd in experiment [3] of 25 nM.

Consider “recombinant antibody HP6017 (anti-human IgG, mouse IgG2a kappa)”, for which, in experiment [1], the Kd was < 1 pM, the koff was < 1e-07 s⁻¹ and the on-rate constant (kon) came to 490000 M⁻¹ s⁻¹. The same substance displayed an EC50 (read off the curve) in experiment [2] of 20 nM. Besides, the Kd in experiment [3] came out at 18 nM.

Source of the values: patent publication US20250155449A1.
